Source: paper PMC7995010

Molecular target: ACE2‐Fc produced in glycoengineered ΔXT/FT Nicotiana benthamiana (human) (UniProt Q9BYF1)
Test: SEC-MALS; isolated dimer fraction of ACE2‐Fc; native molecular mass by MALS

Substance: ACE2‐Fc produced in glycoengineered ΔXT/FT Nicotiana benthamiana (from UniProt Q9BYF1 18-615) (Fc fusion)
- stoichiometry N: 2
